# Measured values published in patent publication US9789213B2, “EGFL7 targeting and/or binding polypeptides and methods for inhibiting angiogenesis” (LONDON HEALTH SCIENCES CENTRE RESEARCH INC., priority 2012, dated 2017).
# Where no end group is shown, it is not given here. The star is where a group is joined. FITC = O=C1OC2(c3ccc(O)cc3Oc3cc(O)ccc32)c2ccc(NC(=S)*)cc21
# Columns and labels:
# [1] = target: T1, recombinant GST-EGFL7 protein (Homo sapiens, UniProt Q9UHF1); assay: OBOC peptide library screen ('beads on a bead') with secondary cell-based screen; assay type: binding; settings: hit beads from magnetic-bead screen and secondary cell-based screen
# T1 construct: Magnetic nanobeads are then coated with full-length recombinant EGFL7; made in house; host or cells: Spodoptera frugiperda Sf21 (baculovirus)
# T1 sequence (Q9UHF1 24-273): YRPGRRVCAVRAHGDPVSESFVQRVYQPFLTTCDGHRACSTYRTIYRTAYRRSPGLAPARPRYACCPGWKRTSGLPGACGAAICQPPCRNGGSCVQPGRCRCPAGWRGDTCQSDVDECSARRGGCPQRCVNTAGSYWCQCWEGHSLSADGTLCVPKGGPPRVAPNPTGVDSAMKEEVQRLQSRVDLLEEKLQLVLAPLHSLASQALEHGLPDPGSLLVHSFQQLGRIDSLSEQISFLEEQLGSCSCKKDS
# Source text: The present invention also encompasses methods of screening polypeptides to identify those that interact with EGFL7 and modulate and EGFL7 activity and/or function. In a specific aspect, a combinatorial peptide library is screened using a “beads on a bead” approach, as set out in FIG. 1 and described in Cho et al., which is incorporated herein by reference in its entirety. […] Magnetic nanobeads are then coated with full-length recombinant EGFL7, are mixed with the peptide library, and the most highly interacting library bead “hits” are sorted using large format flow cytometry. An on-bead cell binding assay can then be used to validate the peptide hits using human endothelial cells. Validated hit peptides are then sequenced using an in-house MALDI-TOF/MS technique, and their binding affinity to EGFL7 is quantified using surface plasmon resonance (SPR) (Amadei et al. 2009, J. Mass Spectrometry, 45:241-51; U.S. Pat. Nos. 5,510,240; and 7,262,269, each of which is incorporated by reference herein in its entirety).
# All fractions containing EGFL7 recombinant protein were pooled together. 30 μg of anti-GST antibody was mixed into the protein solution, and incubated with 370 mg of MagnaBind Protein A/G magnetic beads (Thermo Scientific) for 15 minutes at 4° C. After several washing with wash buffer, the proteins were released from the magnetic beads by boiling in SDS loading buffer, and analyzed by western blot using anti-EGFL7 polyclonal antibody (R&D Systems).
# The OBOC peptide library beads were washed extensively using 70% ethanol, distilled water and binding buffer (50 mM Na2HPO4, 150 mM NaCl, 2 mM CaCl2, 0.5M L-Arginine, pH 7.4) before screening. The magnetic beads were mixed with the library beads in a glass vial, and incubated at 37° C. for 1 hour, A strong magnet was placed at the side of the vial, and the library was screened as described in Cho et al. Positive hits were pooled and washed extensively with ethanol and water. A secondary cell-based screen was performed using EGFL7-positive HT1080 fibrosarcoma cells expressing tdTomato, and EGFL7-negative MDA435 breast cancer cells expressing GFP as described in Cho et al. Hit beads were collected and peptides were sequenced on-bead using MALDI TOF MS/MS as described in Cho et al.
# Recombinant EGFL7 protein was purified (FIGS. 2A and 2B) and conjugated onto magnetic beads. Western blot analysis was performed to show successful conjugation of purified EGFL7 onto magnetic beads using a polyclonal anti-EGFL7 antibody (FIG. 2C). EGFL7-conjugated magnetic beads were then mixed with a OBOC combinatorial peptide library, and positive hits were isolated using a strong neodynium magnet. […] Beads were examined under an inverted fluorescence microscope, and hit beads that strongly associated with red cells, but had little or no interaction with green cells were isolated manually.
# HUVECs = assay: Cell uptake of FITC-labelled peptide by HUVECs with or without EGFL7 siRNA knockdown, flow cytometry; assay type: cell-based, human; settings: HUVECs treated with negative siRNA or EGFL7 siRNA; 1 mM, 1 hour at 4° C.
# Method: EGFL7 knockdown in human umbilical vein endothelial cells (HUVECs) was achieved using a siRNA targeting the exon 5 of the protein and INTERFERin transfection reagent (HUVECs-si). Wildtype HUVECs and HUVECs-si cells were seeded onto separate wells in a 6-well tissue culture plate to approximately 80% confluency. The cells were incubated overnight in DMEM containing 10% fetal bovine serum and Pen/Strep at 37° C. with 5% CO2. The media in each well were removed and replaced with pre-chilled PBS. FITC-E7-p72 (FITC-HMYFLLGH; SEQ ID NO: 20) was added onto cells to a final concentration of 1 mM and incubated for 1 hour at 4° C. Cells were detached from the well with EDTA, washed three times with PBS, and fixed with 4% formaldehyde. The uptake of FITC-labeled peptides was analyzed by flow cytometry.
affinity for EGFL7 in OBOC peptide library screening [1],Substance,uptake of fluorescein-labelled peptide (HUVECs)
high affinity,AYYEEAYE (EGFL7 interacting peptide),
high affinity,DPYDHEFR (EGFL7 interacting peptide),
high affinity,EWELHAEE (EGFL7 interacting peptide),
high affinity,RYQLHHPR (EGFL7 interacting peptide),
high affinity,RYVDHEDW (EGFL7 interacting peptide),
high affinity,SQSSMYPS (EGFL7 interacting peptide),
high affinity,WYKLHPTM (EGFL7 interacting peptide),
,{FITC}-HMYFLLGH [FITC-E7-p72],dependent on EGFL7 expression
